Data taken from patent EP2138508A1.

Target: Met receptor on MK keratinocytes (mouse) (UniProt P16056)
Assay: cell-based or functional assay

InIB full length (from UniProt P0DQD2 31-630) (ligand)
stimulation of DNA synthesis in MK keratinocytes, lowest active concentration: 100 pM
